From US20050214830A1, “G protein-binding proteins and polynucleotides encoding the same” (Wyeth, priority 1998, published 2005) come the findings set out here.

The target in assay [1] is T1, rat Gαs (Rattus norvegicus, UniProt P63095).
T1 construct: fusion proteins containing C-terminal regions of Gα proteins in Y2H assays; expressed in transfected cells; host or cells: yeast strain CY770, plasmid pACT2
Put plainly: Yeast 2-hybrid (Y2H) bioassay for BBP interaction with Gαs. The settings on record: BBP intracellular loop as Gal4 DNA-binding domain fusion; C-terminal region of Gα as Gal4 activation domain fusion; compared to vector. From the text:
(§1) Yeast 2-hybrid assays. Y2H expression plasmids were constructed in the vectors pAS2 and pACT2 (Wade Harper et al., 1993). Strain CY770 (Ozenberger and Young, 1995) served as the host for Y2H assays. Sequences encoding the BBPI intracellular loop were amplified using the oligonucleotides 5′-CCTTCC ATGGAAGTGGCAGTCGCATTGTCT [SEQ ID NO:24] plus 5′-AACACTCGAG TCAAAACCCTACAGTGCAAAAC [SEQ ID NO:25]. This product, containing BBP1 codons 185 to 217, was digested with NcoI+XhoI and cloned into pAS2 cleaved with NcoI+SaII to generate pOZ339. Sequences encoding the BBP2 intracellular loop were amplified using the oligonucleotides 5′-CCATG GCCACTTTACTCTACTCCTTCTT [SEQ ID NO:26] plus 5′-CTCGAG TCA AAT CCC MG TCC TCC MG CG [SEQ ID NO:27]. […]
(§2) The various combinations of plasmids were transformed into strain CY770 by standard protocols. […] Cells were concentrated by centrifugation, counted and 10-fold serial dilutions made from 10^4 to 10^8 cells per ml in sterile water. […]
(§3) BBP1 contains a structural motif known to be a Gα protein activating sequence in the related G protein-coupled receptors. The intracellular sequences of each BBP were expressed as fusion proteins and assayed. for physical interactions with fusion proteins containing C-terminal regions of Gα proteins in Y2H assays.

The target in assay [2] is T2, rat Gαo (Rattus norvegicus, UniProt P59215).
T2 construct: fusion proteins containing C-terminal regions of Gα proteins in Y2H assays; expressed in transfected cells; host or cells: yeast strain CY770, plasmid pACT2
T2 sequence (P59215 213-354 limits assumed): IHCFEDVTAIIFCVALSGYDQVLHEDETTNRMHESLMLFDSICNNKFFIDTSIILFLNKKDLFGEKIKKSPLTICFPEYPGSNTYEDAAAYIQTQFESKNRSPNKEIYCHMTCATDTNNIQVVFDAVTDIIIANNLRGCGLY
As to the kind of experiment: Yeast 2-hybrid (Y2H) bioassay for BBP interaction with Gαo. The conditions noted are these: BBP intracellular loop as Gal4 DNA-binding domain fusion; C-terminal region of Gα as Gal4 activation domain fusion; compared to vector.
Excerpt: as §1, §2, §3

Assay [3] addresses T3, rat Gαi2 (Rattus norvegicus, UniProt P04897).
T3 construct: fusion proteins containing C-terminal regions of Gα proteins in Y2H assays; expressed in transfected cells; host or cells: yeast strain CY770, plasmid pACT2
As to the kind of experiment: Yeast 2-hybrid (Y2H) bioassay for BBP interaction with Gαi2. The conditions noted are these: BBP intracellular loop as Gal4 DNA-binding domain fusion; C-terminal region of Gα as Gal4 activation domain fusion; compared to vector.
Excerpt: as §1, §2, §3

Assay [4] has as its system Human Ntera2 (Nt2) stem cells. As to the kind of experiment: Staurosporine-induced nuclear condensation (apoptosis) in transfected Nt2 stem cells. It counts as cell-based. From the text:
Mammalian expression plasmids. BBP cDNAs were modified by polymerase chain reaction (PCR) for expression from the vector pcDNA3.1 (Invitrogen Corp., Carlsbad, Calif.). BBP1 cDNA was amplified from pBBP1-fl (ATCC #98617); from the third potential translation start site to the translation stop codon, adding a 5′ EcoRI and a 3′ SaII site for cloning. The BBP1 cDNA contains three potential translation starts (codons 1, 30, and 63). The third start site was chosen for the described experiments because the first two potential initiating codons lack appropriate sequence context for efficient translation initiation (see Kozak, 1996), and based on similarities of the protein derived from the third start site with a putative BBP1 orthologue from Drosophila melanogaster (Genbank accession M941984). FIG. 1 depicts this minimal BBP1 translation product to optimize the alignment with the other BBP subtypes. The PCR primers were 5′-TGGTGAATTC GAAAGTGTCG GTCTCAACG ATG G [SEQ ID NO:36] (+strand) and 5′-CTTCGTCGAC TTATGGATATAATTGCGTTTTTC [SEQ ID NO:37] (−strand). The PCR product was digested with EcoRI+SaII and cloned into pcDNA3.1/EcoRI−XhoI to create pOZ363. BBP2 and BBP3 expression plasmids were similarily engineered. BBP2 was amplified from pOZ359 (ATCC #98851; using primers 5′-TTCCGAATTC AAGATGGTGCTAGGTGGTTGCCC [SEQ ID NO:38] (+strand) plus 5′-TTCCCTCGAG TTAGTAAACAGTGCACCAGTTGC [SEQ ID NO:39] (−strand). The PCR product was digested with EcoRI+XhoI and cloned into pcDNA3.1/EcoRI−XhoI to create pFL1 1. BBP3 was amplified from pOZ350 (ATCC #98712 using primers 5′-TTTTGAATTC GCAAG ATG GCG GGA GGG GTG CGC [SEQ ID NO:40] (+strand) plus 5′-TTGGCTCGAG CTAAATGTACAAAGAGCCATCTG [SEQ ID NO:41] (−strand). The PCR product was digested with EcoRI+XhoI and cloned into pcDNA3.1/EcoRI−XhoI to create pFL12. Mutation of the arginine codon within the ‘DRF’ motif of each BBP cDNA was performed using the QuickChange system (Stratagene Co., La Jolla, Calif.). Oligonucleotides were synthesized and purified by Genosys Biotechnologies, Inc. (The Woodlands, Tex.). The R138 codon of BBP1 in pOZ363 was changed to an alanine codon using the oligonucleotide 5′-GG TTGGGAGCAGATGCATTTTACCTTGGATACCC [SEQ ID NO: 42] and its exact reverse complement. The changed nucleotides are underlined. The R138 position of BBP1 in pOZ363 was changed to E using the oligonucleotide 5′-GG TTGGGAGCAGATGAATTTTACCTTGGATACCC [SEQ ID NO:43] and its exact reverse complement. The R167 position of BBP2 in pFL11 was changed to E using the oligonucleotide 5′-CTGGGATGTTTTGGTGTGGAT GM TTC TGT TTG GGA CAC AC [SEQ ID NO:44] and its exact reverse complement. […]

Setting [5] is: recombinant expression in Nt2 stem cells, 100 nM staurosporine for 3 hrs.

T3 sequence (P04897 213-355 limits assumed): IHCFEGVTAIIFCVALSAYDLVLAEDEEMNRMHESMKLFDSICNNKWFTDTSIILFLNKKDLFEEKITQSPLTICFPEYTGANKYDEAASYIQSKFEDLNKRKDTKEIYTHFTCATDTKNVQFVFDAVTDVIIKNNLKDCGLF
T1 sequence (P63095 235-394 limits assumed): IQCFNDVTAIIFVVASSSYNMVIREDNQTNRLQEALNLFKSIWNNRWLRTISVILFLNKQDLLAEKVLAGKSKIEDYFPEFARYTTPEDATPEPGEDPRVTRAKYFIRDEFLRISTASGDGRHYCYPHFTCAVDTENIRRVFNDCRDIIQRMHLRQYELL

B1: BBP3: 221 amino acid BBP family protein (short form), SEQ ID NO:6; expressed from pFL12 (protein, listed as Homo sapiens)
chain: MAGGVRPLRGLRALCRVLLFLSQFCILSGGESTEIPPYVMKCPSNGLCSRLPADCIDCTTNFSCTYGKPVTFDCAVKPSVTCVDQDFKSQKNFIINMTCRFCWQLPETDYECTNSTSCMTVSCPRQRYPANCTVRDHVHCLGNRTFPKMLYCNWTGGYKWSTALALSITLGGFGADRFYLGQWREGLGKLFSFGGLGIWTLIDVLLIGVGYVGPADGSLYI
B1: the “physical interaction with Gαs (Y2H growth response)” value in assay [1] was “strong response”. In addition, in assay [2], the “physical interaction with Gαo (Y2H growth response)” value was “none”. In assay [3], the “physical interaction with Gαi (Y2H growth response)” value is recorded as “exhibited interaction”. Moreover, the “suppression of staurosporine-induced nuclear condensation (antiapoptotic activity), in words” value in assay [4] (setting [5]) is “suppressed the induction of nuclear condensation to the same levels as BBP1”.

B2: BBP1: novel BAP binding protein, SEQ ID NO:2; two-transmembrane protein with 'DRF' motif; expressed from pOZ363 (protein, listed as Homo sapiens)
chain: MHILKGSPNVIPRAHGQKNTRRDGTGLYPMRGPFKNLALLPFSLPLLGGGGSGSGEKVSVSKMAAAWPSGPSAPEAVTARLVGVLWFVSVTTGPWGAVATSAGGEESLKCEDLKVGQYICKDPKINDATQEPVNCTNYTAHVSCFPAPNITCKDSSGNETHFTGNEVGFFKPISCRNVNGYSYKVAVALSLFLGWLGADRFYLGYPALGLLKFCTVGFCGIGSLIDFILISMQIVGPSDGSSYIIDYYGTRLTRLSITNETFRKTQLYP
In the case of B2, the “physical interaction with Gαs (Y2H growth response)” value in assay [1] is “interacted with all three Gα proteins”. Further, the “physical interaction with Gαo (Y2H growth response)” value in assay [2] is given as “interacted with all three Gα proteins”. Besides, the “physical interaction with Gαi (Y2H growth response)” value in assay [3] is reported as “interacted with all three Gα proteins”. Moreover, the “cell death induced by staurosporine” value in assay [4] (Nt2 transfectants, 24 hr treatment with staurosporine (data not shown)) is “blocked cell death”. For the same molecule, the “apoptosis (percentage of condensed nuclei among EGFP+ transfectants)” value in assay [4] (recombinant expression in Nt2 stem cells, 100 nM staurosporine for 3 hrs, controls 45%) came out at 13.5%.

B3: 5HT-R: 7-tm domain G protein-coupled serotonin receptor expressed as control in the apoptosis assay (protein, UniProt P08908 1-422, looked up)
5-hydroxytryptamine receptor …: MDVLSPGQGNNTTSPPAPFETGGNTTGISDVTVSYQVITSLLLGTLIFCAVLGNACVVAAIALERSLQNVANYLIGSLAVTDLMVSVLVLPMAALYQVLNKWTLGQVTCDLFIALDVLCCTSSILHLCAIALDRYWAITDPIDYVNKRTPRRAAALISLTWLIGFLISIPPMLGWRTPEDRSDPDACTISKDHGYTIYSTFGAFYIPLLLMLVLYGRIFRAARFRIRKTVKKVEKTGADTRHGASPAPQPKKSVNGESGSRNWRLGVESKAGGALCANGAVRQGDDGAALEVIEVHRVGNSKEHLPLPSEAGPTPCAPASFERKNERNAEAKRKMALARERKTVKTLGIIMGTFILCWLPFFIVALVLPFCESSCHMPTLLGAIINWLGYSNSLLNPVIYAYFNKDFQNAFKKIIKCKFCRQ
With B3, the “suppression of staurosporine-induced nuclear condensation (antiapoptotic activity), in words” value in assay [4] (setting [5]) is reported as “had no effect”.
